Test: soluble on expression in E. coli; label from the status in PepcDB or PDB records

Row | Sequence | soluble on expression in E. coli
1 | MLACSFKAVNGGFRHLLIRMIIDPPHHLFDTALARQIAIHILHYQFEVTRPRLVAMQEHERTAVARSLRTINRRLEEPVFAKAYRRWAGRDGTVSRDCFKFDCCA | not soluble
2 | MNYFFCADESRQVNEDPIGSGCRRQCYVLIECPPPWMANEFDSKAVPANLRSLENEFYAVEPDGILLFIYSEELRQNYLTRILIFRPMMGYSGGYIKQEIHVSSLEDVAIVLKDWLAGKDIADTDINPHTRDILVCTHGTHDKCCAKYGIPFYRQAKNIVADLAVESVRIWQSSHFSGHRFAPTILDLPQGRYYGKLDCQSFTNILTYTGDINCLKSIYRGWGILPFPAQVMEGELIFLHGWQWFNYKVSCCFIEQSEDECFNRIEISAILPDGDIKTYQADVVEDESKSIYLIGDCHGIEPELIPKYSVNNLIQII | not soluble
3 | MGHHHHHHSHMLSVHTDMASVTKAMAAPESGLEVRDRMWLKITIPNAFLGSDVVDWLYHHVEGFPERREARKYASGLLKAGLIRHTVNKITFSEQCYYVFGDLSGGCESYLVNLSLNDNDGSSGASDQDTLAPLPGATPWPLLPTF | soluble
4 | MGCAEEKKTDVRWATFNIRYDNPQDSLNNWQYRKDRVCQFIKDHELDIVGMQEVLHNQFQDLRAGLPEYDGIGVGRDDGKTAGEYAPLFYRKDKYEVLDSNTFWLAENPDSVGMMGWDAVCVRIATWAKFKDKATGKIFMAVNTHFDHVGEEARRQSALLIIRKIKEIVGERPAVVTGDFNVTDASDAYETITTNEFVMKDAYKTAARVTGVDYTFHDFARIPAEDCEKIDFIFVTPQVLVKSCEIPAEVPEALLSDHNPQLADLELEHHHHHH | not soluble
5 | MSLKVIICGAGQVGYGIAEQLSREDNEVSVIDTAAPLITAITETLDVRGYVGHGAHPDMLAKAGADQADMIIAVTLHDEINIVACEVAHALFSVPTKIARIRDQSYMKPEYADLFSRENMSIDVTISPEVEVGKMVLRRIAFPGATDVVRFAEDTIYMLAIECMEDCPVINTPLQQLSSLFPDLIATVVGVYRDGILKVAHSSEQLRVGDLAYVICQRQHARRTLSLFGHEEQEGHHHHHH | not soluble
6 | MKPYDLSEAVAVVTGGSSGIGLATVELLLEAGAAVAFCARDGERLRAAESALRQRFPGARLFASVCDVLDALQVRAFAEACERTLGCASILVNNAGQGRVSTFAETTDEAWSEELQLKFFSVIHPVRAFLPQLESRADAAIVCVNSLLASQPEPHMVATSAARAGVKNLVRSMAFEFAPKGVRVNGILIGLVESGQWRRRFEAREERELDWAQWTAQLARNKQIPLGRLGKPIEAARAILFLASPLSAYTTGSHIDVSGGLSRHA | soluble
7 | MTQKIEQSQRQERVAAWNRRTECDLAAFQNSPKQTYQAEKARDRKLCANLEEAIRRSGLQDGMTVSFHHAFRGGDLTVNMVMDVIAKMGFKNLTLASSSLSDCHAPLVEHIRQGVVTRIYTSGLRGPLAEEISRGLLAEPVQIHSHGGRVHLVQSGELNIDVAFLGVPSCDEFGNANGYTGKACCGSLGYAMVDADNAKQVVMLTEELLPYPHNPASIEQDQVDLIVKVNRVGDAAKIGAGTTRMTTNPRELLIARSAADVIVNSGYFKEGFSMQTGTGGASLAVTRFLEDKMRSRDIRADFALGGITATMVDLHEKGLIRKLLDVQSFDSHAAQSLARNPNHIEISANQYANWGSKGASVDRLDVVVLSALEIDRQFNVNVLTGSDGVLRGASGGHCDTAIASALSIIVAPLVRGRIPTLVDNVLTCITPGSSVDILVTDHGIAVNPARPELAERLQEAGIKVVSIEWLRERARLLTGEPQPIEFTDRVVAVVRYRDGSVIDVVHQVKELEHHHHHH | soluble
8 | MSLFFSLPYRFNVLSVVIASIPTLAFPTTFSDSTFFHKDWEIVCDNTLTCRAAGYSPEEKGMGEDTGTQDVSLLITRHAGQNTPITAEVTLAEVDKEIPKGTRLTLAIDGVDKGVLTSTEDNLWQLNETQIPAVLQALKGRGKVAFLHDGMVSELSGAGAYAVLLKMDERQGRIGTTDAITKKGNKSSELSAVAAPVIYAAATSQEPSRNLTNAEQAAIQKKLLKTLKEDDCYDFPPQEERVAEPMMITPLNGSMSLLSTLCWRAAYNEGYAYWVIDNAMQTQPQLMTTIGVGYENGEITAVQKGRGLADCMSDSAWVWDGKTFQQSRASITGSCRMIRLGGTWDLPYWTATVIRPGKEGHHHHHH | soluble
9 | MDQLQIKDLEMFAYHGLFPSEKELGQKFIVSAILSYDMTKAATDLDLTASVHYGELCQQWTTWFQETSEDLIETVAYKLVERTFESYPLVQEMKLELKKPWAPVHLSLDTCSVTIHRRKQRAFIALGSNMGDKQANLKQAIDKLRARGIHILKESSVLATEPWGGVEQDSFANQVVEVETWLPAQDLLETLLAIESELGRVREVHWGPRLIDLDLLFVEDQILYTDDLILPHPYIAERLFVLESLQEIAPHFIHPILKQPIRNLYDALKK | soluble
10 | MGSDKIHHHHHHMTQLAPDSSIINAQACLSLDEAYEACRKETAQWAKTFYLGTMLLPSIKRRAIWAIYVWCRRTDELMDSAEAQTRPVSELANRLDQWEERTRAMFAGQVLDGLDAVMADTLERFPQSIQPYLDMIEGQRMDLNQHRYATFQQLELYCYRVAGTVGLMTQHVMGLDPAYTTAPWSSSPETSDAAIALGIANQLTNILRDVGEDRGRGRIYIPQEDLDRFGYSEADLMAGRLNSAWKDLMAFQLERAREWFARSEAGVRWLSQDARWPVWASLRLYRGILDSIERLDYDVFNNRAYVSRWMKLVDLPLSYLMAQAR | not soluble
11 | AIAEKLSEWKKFRIDSDKNDWIEQVDISGAKSLYEKEAQDKPLRVLVLYGSLRQRSFTRCCAYEAARLLDHLGADVRVFDPTELPVKGQVEETHHKVQELRELALWSEAQFWCSPEMHGNVTGCFKNQIDWIPLSLGSVRPTQGRTLAICQVNGGSQSFNAVNTLRVLGRWMRMFTIPNQSSIPKAWQEFDEYNRMKPSPLRDRLVDVVEELVKFSLMLRDHSSFHCVCQKL | soluble
12 | MSTQYETQGYTINNAGRRLVVDPITRIEGHMRCEVNINDQNVITNAVSCGTMFRGLEIILQGRDPRDAWAFVERICGVCTGVHALASVYAIEDAIGIKVPDNANIIRNIMLATLWCHDHLVHFYQLAGMDWIDVLDALKADPRKTSELAQSLSSWPKSSPGYFFDVQNRLKKFVEGGQLGIFRNGYWGHPQYKLPPEANLMGFAHYLEALDFQREIVKIHAVFGGKNPHPNWIVGGMPCAINIDESGAVGAVNMERLNLVQSIITRTADFINNVMIPDALAIGQFNKPWSEIGTGLSDKCVLSYGAFPDIANDFGEKSLLMPGGAVINGDFNNVLPVDLVDPQQVQEFVDHAWYRYPNDQVGRHPFDGITDPWYNPGDVKGSDTNIQQLNEQERYSWIKAPRWRGNAMEVGPLARTLIAYHKGDAATVESVDRMMSALNLPLSGIQSTLGRILCRAHEAQWAAGKLQYFFNKLMTNLKNGNLATASTEKWEPTTWPTECRGVGFTEAPRGALGHWAAIRDGKIDLYQCVVPTTWNASPRDPKGQIGAYEAALMNTKMAIPEQPLEILRTLHSFDPCLACSTHVLGDDGSELISVQVR | not soluble
13 | MEHKIREEMRVLPSIDPQFEIERRVAFIKRKLTEARCKSLVLGISGGVDSTTCGRLAQLAVEELNQQHNTTEYQFIAVRLPYGEQKDEDEAQLALSFIRPTHSVSVNIKAGVDGLHAASHHALANTGLIPSDPAKVDFIKGNVKARARMVAQYEIAGYVGGLVLGTDHSAENITGFYTKFGDGACDLAPLFGLNKRQVRLLAKTLGAPEQLVYKTPTADLEELAPQKADEAALNLTYEQIDDFLEGKAVPAEVSQRLVAIYHATQHKRQPIPTIYD | soluble
14 | AIAANQWERFVWLALDAPDTIVERAPLVIQVAWLEDTQLRLWEPAAREPLKRGDDAALRTYLRDAAECPWDPATDPSLVREFLLSRAVDCAFRDELAEHAGCVVDEELDTDFIAETMALSEELVRADDKKLPLETQDLDPASFDLLRAELALPAASAREVLRAGAHWAITRWPPREQWLPPCSRADAPATTALAATGGVPSEAQATPEPMCTETTVSDATCALPSGVYAQLQRIGRQLHNEELLYTQHLLNAALERAQTMTANPRTEARLGRVGH | soluble
15 | SKRRRCKGKNMTKNLLVELGLEELPAYVVTPSEKQLGEKMAAFLGENRLSYESIQTFSTPRRLAVRVLGLADQQTDLTEDFKGPSKKIALDADGNFSKAAQGFVRGKGLTVDDIEFREVKGEEYVYVTKHEAGKSAKEVLAGIPEVLASLTFPVSMHWANNSFEYIRPVHTLIVLLGDEALELDFLGIKSGRVSRGHRFLGHEVEITNADSYEEDLRTVYVIANSKERENMIREQIKAIEAEQGVQVQIEEGLLNEVLNLVEYPTTFMGGFDTKYLDVPEDVLVTSMETHQRYFVVRDLDGRLKPNFISVRNGNAEHLENVVRGNEKVLVARLEDGEFFWREDQKLKIEDLVAKLANVTFHEKIGSLSEHMARAGVIAASLAEKAGLTAEEKAAVARAAEIYKFDLLTGMVGEFDELQGIMGEKYALLAGEDEAVATAIREHYLPDSADGALPETKVGAILALADKLDTLLSFFSVGLIPSGSNDPYALRRATQGIVRILDAFGWHIPMDELIDSLYGLSFDSLSYDNQAEVIRFIKARVDKMMGSTPKDIKEAVLSGSNFV | not soluble
16 | MERCGWVSQDPLYIAYHDNEWGVPETDSKKLFEMICLEGQQAGLSWITVLKKRENYRACFHQFDPVKVAAMQEEDVERLVQDAGIIRHRGKIQAIIGNARAYLQMEQNGEPFVDFVWSFVNHQPQVTQATTLSEIPTSTSASDALSKALKKRGFKFVGTTICYSFMQACGLVNDHVVGCCCYPGNKP | not soluble
17 | MKDREIFAGLSTTVPFVLRLDGRSFHRFSKDRYKKPYDKVFSDAMVKTARALVTDSGLSPSFAYTFSDEISLYVPAPVFDCRVEKLASVSAAFAASAFTLYAGASEPLAFDARVIPIEEGLFPAYLSWRQAEAWRNHMNGYAQKILQDEGVSPTNAQKQLDGMNAAALHEFAFSRGVNLALTPAWERRGICIYRDVVMRDGYNPIKDEKVSVERTIAVIDEDVPLFKSPEGTAWVLSKIRLEHHHHHH | not soluble
18 | MVRVKVNDRIVEVPPGTSVMDAVFHAGYDVPLFCSEKHLSPIGACRMCLVRIGLPKKGPDGKPLLNEKGEPEIQWQPKLAASCVTAVADGMVVDTLSDVVREAQAGMVEFTLLNHPLDCPTCDKGGACELQDRTVEYGLYEKYYQKGPLELPVYTRFEFTRRHVDKHHPLSPFVILDRERCIHCKRCVRYFEEVPGDEVLDFIERGVHTFIGTMDFGLPSGFSGNITDICPVGALLDLTARFRARNWEMEETPTTCALCPVGCGITADTRSGELLRIRAREVPEVNEIWICDAGRFGHEWADQNRLKTPLVRKEGRLVEATWEEAFLALKEGLKEARGEEVGLYLAHDATLEEGLLASELAKALKTPHLDFQGRTAAPASLFPPASLEDLLQADFALVLGDPTEEAPILHLRLSEFVRDLKPPHRYNHGTPFADLQIKERMPRRTDKMALFAPYRAPLMKWAAIHEVHRPGEEREILLALLGDKEGSEMVAKAKEAWEKAKNPVLILGAGVLQDTVAAERARLLAERKGAKVLAMTPAANARGLEAMGVLPGAKGASWDEPGALYAYYGFVPPEEALKGKRFVVMHLSHLHPLAERYAHVVLPAPTFYEKRGHLVNLEGRVLPLSPAPIENGEAEGALQVLALLAEALGVRPPFRLHLEAQKALKARKVPEAMGRLSFRLKELRPKERKGAFYLRPTMWKAHQAVGKAQEAARAELWAHPETARAEALPEGAQVAVETPFGRVEARVVHREDVPKGHLYLSALGPAAGLRVEGRVLVPAGGEA | soluble
19 | MNLNFIVPDINMTFGDMKFMGLNRERYVYDRENNKRTDVLESRIYNIASAVQGGQIEVTIPEYAGAKEIPPFADIELKNPKISAMATSQRDSTYANVMWKLEADDIVVKGGSSVKPAAATGGNEKKLEHHHHHH | not soluble

Source: the DeepSol protein solubility set
